In PMC4591219 (Cell reports, 2015):

How the values were obtained:
Ccq1 (130–439) = molecular target: T1, Ccq1 (130–439) (S. pombe, UniProt Q10432 130-439); experiment: cross-linking
T1 sequence: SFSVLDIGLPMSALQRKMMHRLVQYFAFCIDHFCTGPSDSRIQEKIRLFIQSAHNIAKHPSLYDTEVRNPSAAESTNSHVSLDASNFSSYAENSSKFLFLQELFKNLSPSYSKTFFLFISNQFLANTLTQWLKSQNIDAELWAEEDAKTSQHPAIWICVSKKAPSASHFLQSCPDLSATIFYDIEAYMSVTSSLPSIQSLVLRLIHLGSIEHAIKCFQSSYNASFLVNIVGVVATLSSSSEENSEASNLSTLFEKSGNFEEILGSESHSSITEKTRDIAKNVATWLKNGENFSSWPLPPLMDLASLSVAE

[1] = molecular target: T2, full-length Poz1 (in the purified Poz1-Tpz1 complex) (S. pombe, UniProt O13852 1-249); experiment: cross-linking
T2 sequence: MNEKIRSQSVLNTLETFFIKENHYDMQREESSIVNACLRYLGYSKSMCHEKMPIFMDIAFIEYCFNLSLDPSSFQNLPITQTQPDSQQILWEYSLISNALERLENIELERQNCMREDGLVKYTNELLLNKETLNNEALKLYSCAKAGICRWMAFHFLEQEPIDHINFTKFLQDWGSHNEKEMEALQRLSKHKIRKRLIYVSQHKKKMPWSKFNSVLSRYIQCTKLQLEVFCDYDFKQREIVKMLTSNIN

Poz1-W209A (recombinant) = molecular target: T3, Poz1-W209A (recombinant) (S. pombe, UniProt O13852 1-249, W209A); experiment: pull-down
T3 sequence: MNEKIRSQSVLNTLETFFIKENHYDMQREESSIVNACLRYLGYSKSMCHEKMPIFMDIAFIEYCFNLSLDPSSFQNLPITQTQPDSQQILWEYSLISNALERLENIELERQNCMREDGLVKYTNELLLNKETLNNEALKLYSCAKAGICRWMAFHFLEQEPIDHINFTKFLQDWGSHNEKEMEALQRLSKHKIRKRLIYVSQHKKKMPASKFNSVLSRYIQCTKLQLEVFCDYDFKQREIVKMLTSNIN

Poz1-W174R (recombinant) = molecular target: T4, Poz1-W174R (recombinant) (S. pombe, UniProt O13852 1-249, W174R); experiment: pull-down
T4 sequence: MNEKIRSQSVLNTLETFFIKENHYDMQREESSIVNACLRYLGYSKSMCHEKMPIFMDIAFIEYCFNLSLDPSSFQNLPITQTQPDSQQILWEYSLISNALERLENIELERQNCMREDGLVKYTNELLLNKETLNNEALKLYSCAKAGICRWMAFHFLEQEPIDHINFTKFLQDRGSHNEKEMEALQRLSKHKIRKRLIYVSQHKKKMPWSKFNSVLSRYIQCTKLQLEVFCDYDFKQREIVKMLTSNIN

[2] = molecular target: T5, Poz1 (wild type, recombinant, GST pull-down) (S. pombe, UniProt O13852 1-249); experiment: pull-down
T5 sequence: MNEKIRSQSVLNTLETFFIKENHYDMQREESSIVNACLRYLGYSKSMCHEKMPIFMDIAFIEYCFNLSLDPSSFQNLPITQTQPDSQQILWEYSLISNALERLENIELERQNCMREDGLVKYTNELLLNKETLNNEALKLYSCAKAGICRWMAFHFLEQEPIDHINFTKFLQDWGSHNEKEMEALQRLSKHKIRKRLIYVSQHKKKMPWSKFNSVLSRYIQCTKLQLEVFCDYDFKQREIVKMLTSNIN

[3] = molecular target: T6, full-length Pot1 (in the purified Pot1–Tpz1-NTD complex) (S. pombe, UniProt O13988 1-555); experiment: cross-linking
T6 sequence: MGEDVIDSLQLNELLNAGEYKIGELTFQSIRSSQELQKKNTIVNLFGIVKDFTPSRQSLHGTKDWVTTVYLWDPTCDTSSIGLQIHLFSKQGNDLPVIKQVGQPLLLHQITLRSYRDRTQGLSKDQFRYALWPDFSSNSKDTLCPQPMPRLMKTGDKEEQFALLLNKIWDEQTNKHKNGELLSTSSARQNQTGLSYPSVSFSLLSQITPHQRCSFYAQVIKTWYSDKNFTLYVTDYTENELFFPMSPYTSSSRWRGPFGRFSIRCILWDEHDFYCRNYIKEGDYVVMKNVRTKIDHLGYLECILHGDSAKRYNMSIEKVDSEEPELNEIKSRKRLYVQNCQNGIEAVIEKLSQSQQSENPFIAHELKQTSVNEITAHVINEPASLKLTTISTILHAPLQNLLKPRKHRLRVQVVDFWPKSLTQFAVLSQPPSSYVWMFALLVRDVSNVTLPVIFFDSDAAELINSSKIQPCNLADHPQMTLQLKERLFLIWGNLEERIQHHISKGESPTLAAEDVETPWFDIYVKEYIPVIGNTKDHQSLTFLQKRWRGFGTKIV

[4] = molecular target: T7, Pot1 (wild type, recombinant, GST pull-down) (S. pombe, UniProt O13988 1-555); experiment: pull-down
T7 sequence: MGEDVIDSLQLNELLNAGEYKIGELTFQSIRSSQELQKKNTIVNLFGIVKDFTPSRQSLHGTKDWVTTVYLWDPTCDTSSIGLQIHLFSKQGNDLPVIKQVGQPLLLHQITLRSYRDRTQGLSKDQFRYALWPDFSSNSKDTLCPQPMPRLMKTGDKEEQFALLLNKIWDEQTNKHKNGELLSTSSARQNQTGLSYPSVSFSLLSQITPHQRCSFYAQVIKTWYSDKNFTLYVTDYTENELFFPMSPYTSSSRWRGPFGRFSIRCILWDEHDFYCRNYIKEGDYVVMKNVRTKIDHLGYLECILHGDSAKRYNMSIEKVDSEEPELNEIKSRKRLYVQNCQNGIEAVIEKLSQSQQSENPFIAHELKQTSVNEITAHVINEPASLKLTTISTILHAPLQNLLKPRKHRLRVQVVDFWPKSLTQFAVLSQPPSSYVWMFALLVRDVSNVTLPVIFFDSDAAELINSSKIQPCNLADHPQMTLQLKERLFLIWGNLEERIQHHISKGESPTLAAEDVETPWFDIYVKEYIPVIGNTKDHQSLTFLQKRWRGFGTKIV

Pot1-I453R = molecular target: T8, Pot1-I453R (Schizosaccharomyces pombe, UniProt O13988 1-555, I453R); experiment: EMSA
T8 sequence: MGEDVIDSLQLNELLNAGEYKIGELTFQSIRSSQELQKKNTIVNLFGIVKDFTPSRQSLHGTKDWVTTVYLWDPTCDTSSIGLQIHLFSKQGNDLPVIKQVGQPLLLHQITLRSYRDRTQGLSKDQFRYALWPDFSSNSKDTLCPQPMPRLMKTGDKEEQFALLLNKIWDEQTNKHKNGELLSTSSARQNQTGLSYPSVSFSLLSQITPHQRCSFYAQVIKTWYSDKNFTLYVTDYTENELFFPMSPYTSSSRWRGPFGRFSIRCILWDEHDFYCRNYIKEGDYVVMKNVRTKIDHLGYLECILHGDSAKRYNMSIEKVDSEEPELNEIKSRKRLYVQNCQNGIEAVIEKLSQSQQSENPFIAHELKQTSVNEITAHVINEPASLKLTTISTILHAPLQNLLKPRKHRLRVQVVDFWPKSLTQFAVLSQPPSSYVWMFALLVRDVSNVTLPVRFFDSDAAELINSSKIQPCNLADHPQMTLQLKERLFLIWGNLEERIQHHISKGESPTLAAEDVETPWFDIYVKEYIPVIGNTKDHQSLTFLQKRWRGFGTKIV

Pot1-F520A = molecular target: T9, Pot1-F520A (Schizosaccharomyces pombe, UniProt O13988 1-555, F520A); experiment: EMSA
T9 sequence: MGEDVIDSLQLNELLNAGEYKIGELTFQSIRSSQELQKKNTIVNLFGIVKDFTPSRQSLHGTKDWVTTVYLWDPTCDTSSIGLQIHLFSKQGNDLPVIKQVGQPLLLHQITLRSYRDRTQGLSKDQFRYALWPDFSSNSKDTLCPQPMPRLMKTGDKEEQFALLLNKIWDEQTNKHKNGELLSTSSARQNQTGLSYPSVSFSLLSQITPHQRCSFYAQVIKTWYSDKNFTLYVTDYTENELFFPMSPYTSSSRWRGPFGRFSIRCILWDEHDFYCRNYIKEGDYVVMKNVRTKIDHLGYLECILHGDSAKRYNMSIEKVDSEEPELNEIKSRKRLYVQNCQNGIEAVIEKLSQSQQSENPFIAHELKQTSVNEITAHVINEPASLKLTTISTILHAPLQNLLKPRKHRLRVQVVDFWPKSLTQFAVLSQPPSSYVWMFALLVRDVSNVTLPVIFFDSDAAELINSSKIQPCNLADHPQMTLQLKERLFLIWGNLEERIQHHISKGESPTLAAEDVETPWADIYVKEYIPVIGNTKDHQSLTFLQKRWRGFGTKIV

AINFTSDICNEQIELEYKRKPIPDYDFMKGLETTLQELYVEHQS (domain or fragment) [Tpz1 (415–458)]: binds (Ccq1 (130–439)).

B1: Tpz1 (406–508) (in the purified Poz1-Tpz1 complex) (domain or fragment)
chain: SSVISCTPPAINFTSDICNEQIELEYKRKPIPDYDFMKGLETTLQELYVEHQSKKRRLELFQLTNNHQKNSEACEMCRLGLPHGSFFELLRDWKKIEEFRNKS
B1: binds [1].

B2: GST-Tpz1-CTD (406–508) (domain or fragment)
chain: SSVISCTPPAINFTSDICNEQIELEYKRKPIPDYDFMKGLETTLQELYVEHQSKKRRLELFQLTNNHQKNSEACEMCRLGLPHGSFFELLRDWKKIEEFRNKS
B2: binds (Poz1-W209A (recombinant)); binds (Poz1-W174R (recombinant)); binds [2].

B3: Tpz1-NTD (1–234) (in the purified Pot1–Tpz1-NTD complex) (domain or fragment)
chain: MSNCLKHPWLENGLLNLIKNADVLPIRVFKCQPLQIFEYIRYEHPIRCKLSDTEFYIEAEFSSQSISDLNNFTEKRITSLRGGIVTLGNFLIHLIPSQSGIIPWIQVESFNFQGCEGAVFGNPKAITTSALFNALLQSPYLAALANEFNRSIKEGSSYQEASLSQQEKPNDNTSNSRDIKNNIQFHWKNMTSLSIEECIIPKGQQLILEKESEENTTHGIYLEERKMAQGLHNS
B3: binds [3].

B4: GST-Tpz1-NTD (2–234) (domain or fragment)
chain: SNCLKHPWLENGLLNLIKNADVLPIRVFKCQPLQIFEYIRYEHPIRCKLSDTEFYIEAEFSSQSISDLNNFTEKRITSLRGGIVTLGNFLIHLIPSQSGIIPWIQVESFNFQGCEGAVFGNPKAITTSALFNALLQSPYLAALANEFNRSIKEGSSYQEASLSQQEKPNDNTSNSRDIKNNIQFHWKNMTSLSIEECIIPKGQQLILEKESEENTTHGIYLEERKMAQGLHNS
B4: binds [4].

GTTACGGTTACAGGTTACG (ssDNA) [telomeric ssDNA 19-mer]: binds (Pot1-I453R); binds (Pot1-F520A).
